{"source": "patent US20180346600A1", "about": "(AJOU UNIVERSITY INDUSTRY ACADEMIC COOPERATION FOUNDATION, published 2018)", "binders": {"B1": {"name": "secreted FcCH3B, A109 (E357M/S364W/D399V/F405T), from yeast (other)", "chain": "TSPPSPAPELLGGPSVFLFPPKPKDTLMISRTPEVTCVVVDVSHEDPEVKFNWYVDGVEVHNAKTKPREEQYQSTYRVVSVLTVLHQDWLNGKEYKCKVSNKALPAPIEKTISKAKGQPREPQVYTLPPSRDMLTKNQVWLTCLVKGFYPSDIAVEWESNGQPENNYKTTPPVLVSDGSFTLYSKLTVDKSRWQQGNVFSCSVMHEALHNHYTQKSLSLSPGK", "notes": "also called A109 CH3B chain (yeast); not shown: flag-tag"}, "B2": {"name": "secreted FcCH3B, A146 (E357M/D399V/F405T), from yeast (other)", "chain": "TSPPSPAPELLGGPSVFLFPPKPKDTLMISRTPEVTCVVVDVSHEDPEVKFNWYVDGVEVHNAKTKPREEQYQSTYRVVSVLTVLHQDWLNGKEYKCKVSNKALPAPIEKTISKAKGQPREPQVYTLPPSRDMLTKNQVSLTCLVKGFYPSDIAVEWESNGQPENNYKTTPPVLVSDGSFTLYSKLTVDKSRWQQGNVFSCSVMHEALHNHYTQKSLSLSPGK", "notes": "also called A146 CH3B chain (yeast); not shown: flag-tag"}, "B3": {"name": "secreted FcCH3B, B121 (K392E/D399V/F405T), from yeast (other)", "chain": "TSPPSPAPELLGGPSVFLFPPKPKDTLMISRTPEVTCVVVDVSHEDPEVKFNWYVDGVEVHNAKTKPREEQYQSTYRVVSVLTVLHQDWLNGKEYKCKVSNKALPAPIEKTISKAKGQPREPQVYTLPPSRDELTKNQVSLTCLVKGFYPSDIAVEWESNGQPENNYETTPPVLVSDGSFTLYSKLTVDKSRWQQGNVFSCSVMHEALHNHYTQKSLSLSPGK", "notes": "also called B121 CH3B chain (yeast); not shown: flag-tag"}, "B4": {"name": "secreted FcCH3B, B135 (K392S/K409L/D399V/F405T), from yeast (other)", "chain": "TSPPSPAPELLGGPSVFLFPPKPKDTLMISRTPEVTCVVVDVSHEDPEVKFNWYVDGVEVHNAKTKPREEQYQSTYRVVSVLTVLHQDWLNGKEYKCKVSNKALPAPIEKTISKAKGQPREPQVYTLPPSRDELTKNQVSLTCLVKGFYPSDIAVEWESNGQPENNYSTTPPVLVSDGSFTLYSLLTVDKSRWQQGNVFSCSVMHEALHNHYTQKSLSLSPGK", "notes": "also called B135 CH3B chain (yeast); not shown: flag-tag"}, "B5": {"name": "secreted FcCH3B, B168 (K392G/K409M/D399V/F405T), from yeast (other)", "chain": "TSPPSPAPELLGGPSVFLFPPKPKDTLMISRTPEVTCVVVDVSHEDPEVKFNWYVDGVEVHNAKTKPREEQYQSTYRVVSVLTVLHQDWLNGKEYKCKVSNKALPAPIEKTISKAKGQPREPQVYTLPPSRDELTKNQVSLTCLVKGFYPSDIAVEWESNGQPENNYGTTPPVLVSDGSFTLYSMLTVDKSRWQQGNVFSCSVMHEALHNHYTQKSLSLSPGK", "notes": "also called B168 CH3B chain (yeast); not shown: flag-tag"}, "B6": {"name": "A107w/oW-VT (secreted FcCH3B from yeast) (other)", "secreted Fc chain (hinge-CH2-CH3B)": "TSPPSPAPELLGGPSVFLFPPKPKDTLMISRTPEVTCVVVDVSHEDPEVKFNWYVDGVEVHNAKTKPREEQYQSTYRVVSVLTVLHQDWLNGKEYKCKVSNKALPAPIEKTISKAKGQPREPQVYTLPPSRDNLTKNQVSLTCLVKGFYPSDIAVEWESNGQPENNYKTTPPVLDSDGSFFLYSKLTVDKSRWQQGNVFSCSVMHEALHNHYTQKSLSLSPGK", "notes": "also called A107w/oW-VT CH3B chain (yeast), E357N"}, "B7": {"name": "secreted FcCH3B, A205 (E357N/K370R), from yeast (other)", "chain": "TSPPSPAPELLGGPSVFLFPPKPKDTLMISRTPEVTCVVVDVSHEDPEVKFNWYVDGVEVHNAKTKPREEQYQSTYRVVSVLTVLHQDWLNGKEYKCKVSNKALPAPIEKTISKAKGQPREPQVYTLPPSRDNLTKNQVSLTCLVRGFYPSDIAVEWESNGQPENNYKTTPPVLDSDGSFFLYSKLTVDKSRWQQGNVFSCSVMHEALHNHYTQKSLSLSPGK", "notes": "also called A205 CH3B chain (yeast); not shown: flag-tag"}, "B8": {"name": "secreted FcCH3B, A210 (E357N/K370H), from yeast (other)", "chain": "TSPPSPAPELLGGPSVFLFPPKPKDTLMISRTPEVTCVVVDVSHEDPEVKFNWYVDGVEVHNAKTKPREEQYQSTYRVVSVLTVLHQDWLNGKEYKCKVSNKALPAPIEKTISKAKGQPREPQVYTLPPSRDNLTKNQVSLTCLVHGFYPSDIAVEWESNGQPENNYKTTPPVLDSDGSFFLYSKLTVDKSRWQQGNVFSCSVMHEALHNHYTQKSLSLSPGK", "notes": "also called A210 CH3B chain (yeast); not shown: flag-tag"}, "B9": {"name": "secreted FcCH3B, A216 (E357N), from yeast (other)", "chain": "TSPPSPAPELLGGPSVFLFPPKPKDTLMISRTPEVTCVVVDVSHEDPEVKFNWYVDGVEVHNAKTKPREEQYQSTYRVVSVLTVLHQDWLNGKEYKCKVSNKALPAPIEKTISKAKGQPREPQVYTLPPSRDNLTKNQVSLTCLVKGFYPSDIAVEWESNGQPENNYKTTPPVLDSDGSFFLYSKLTVDKSRWQQGNVFSCSVMHEALHNHYTQKSLSLSPGK", "notes": "also called A216 CH3B chain (yeast); not shown: flag-tag"}}, "test_in_all_cases": "flow cytometry of diploid yeast: MFI of Flag-tagged secreted FcCH3B held on displayed FcCH3A (anti-Flag mouse mAb and PE anti-mouse antibody), normalised to EW-RVT = 100 %", "key": {"[1]": {"target": "T1, displayed FcCH3A, A109 (K370M/K409W), on yeast cell surface (human, UniProt P0DOX5 227-449 = IgG part)", "T1 construct": "also called A109 CH3A chain (yeast)", "T1 Fc": "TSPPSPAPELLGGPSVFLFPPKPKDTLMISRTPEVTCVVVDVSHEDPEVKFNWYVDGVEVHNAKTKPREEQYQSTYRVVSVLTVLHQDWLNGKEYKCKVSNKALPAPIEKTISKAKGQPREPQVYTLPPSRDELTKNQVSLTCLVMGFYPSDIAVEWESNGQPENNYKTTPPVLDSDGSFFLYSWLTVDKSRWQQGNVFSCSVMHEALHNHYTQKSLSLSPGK"}, "[2]": {"target": "T2, displayed FcCH3A, A146 (K370D/K409W), on yeast cell surface (human, UniProt P0DOX5 227-449 = IgG part)", "T2 construct": "also called A146 CH3A chain (yeast)", "T2 Fc": "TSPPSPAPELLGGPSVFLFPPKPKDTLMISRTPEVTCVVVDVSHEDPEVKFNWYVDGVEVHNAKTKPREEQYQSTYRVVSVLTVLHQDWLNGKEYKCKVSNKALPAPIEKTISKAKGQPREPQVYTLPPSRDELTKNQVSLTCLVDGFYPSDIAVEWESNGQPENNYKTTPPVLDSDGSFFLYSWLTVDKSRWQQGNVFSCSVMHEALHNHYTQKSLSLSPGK"}, "[3]": {"target": "T3, displayed FcCH3A, B121 (D399E/K409W), on yeast cell surface (human, UniProt P0DOX5 227-449 = IgG part)", "T3 construct": "also called B121 CH3A chain (yeast)", "T3 Fc": "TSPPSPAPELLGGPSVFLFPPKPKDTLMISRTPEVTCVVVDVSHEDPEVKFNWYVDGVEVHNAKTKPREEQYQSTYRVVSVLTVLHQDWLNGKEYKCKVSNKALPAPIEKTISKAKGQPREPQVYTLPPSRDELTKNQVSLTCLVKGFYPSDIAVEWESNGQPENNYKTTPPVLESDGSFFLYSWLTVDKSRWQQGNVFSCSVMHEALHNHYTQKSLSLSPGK"}, "[4]": {"target": "T4, displayed FcCH3A, B135 (D399L/K409W), on yeast cell surface (human, UniProt P0DOX5 227-449 = IgG part)", "T4 construct": "also called B135 CH3A chain (yeast)", "T4 Fc": "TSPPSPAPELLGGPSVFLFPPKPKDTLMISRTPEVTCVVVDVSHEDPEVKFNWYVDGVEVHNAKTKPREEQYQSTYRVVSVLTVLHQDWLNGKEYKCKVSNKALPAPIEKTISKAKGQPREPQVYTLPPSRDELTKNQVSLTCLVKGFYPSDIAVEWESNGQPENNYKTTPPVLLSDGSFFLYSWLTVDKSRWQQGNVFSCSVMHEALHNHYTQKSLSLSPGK"}, "[5]": {"target": "T5, displayed FcCH3A, B168 (D399L/K409W), on yeast cell surface (human, UniProt P0DOX5 227-449 = IgG part)", "T5 construct": "also called B168 CH3A chain (yeast)", "T5 Fc": "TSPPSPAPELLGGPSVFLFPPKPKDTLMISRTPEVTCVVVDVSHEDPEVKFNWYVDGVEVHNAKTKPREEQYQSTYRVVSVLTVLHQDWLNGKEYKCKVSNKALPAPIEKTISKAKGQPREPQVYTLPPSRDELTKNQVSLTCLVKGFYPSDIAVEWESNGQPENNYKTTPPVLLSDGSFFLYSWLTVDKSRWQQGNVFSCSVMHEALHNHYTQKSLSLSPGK"}, "[6]": {"target": "T6, A107w/oW-VT (displayed FcCH3A on yeast cell surface)", "T6 construct": "also called A107w/oW-VT CH3A chain (yeast), K370E", "T6 Fc": "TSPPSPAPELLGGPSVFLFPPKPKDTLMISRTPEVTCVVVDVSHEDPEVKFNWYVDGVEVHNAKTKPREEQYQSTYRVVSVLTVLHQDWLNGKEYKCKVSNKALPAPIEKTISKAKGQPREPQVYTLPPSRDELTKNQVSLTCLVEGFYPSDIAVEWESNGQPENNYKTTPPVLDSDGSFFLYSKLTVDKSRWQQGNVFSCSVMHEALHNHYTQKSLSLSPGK", "text": "(§1) FACS was sequentially performed four times. […] Table 9 below summarizes the mutation pairs introduced into individual clones selected from the respective LibA2 and LibB2 libraries."}, "[7]": {"target": "T7, displayed FcCH3A, A205 (E357D/S364W/K370E), on yeast cell surface (human, UniProt P0DOX5 227-449 = IgG part)", "T7 construct": "also called A205 CH3A chain (yeast)", "T7 Fc": "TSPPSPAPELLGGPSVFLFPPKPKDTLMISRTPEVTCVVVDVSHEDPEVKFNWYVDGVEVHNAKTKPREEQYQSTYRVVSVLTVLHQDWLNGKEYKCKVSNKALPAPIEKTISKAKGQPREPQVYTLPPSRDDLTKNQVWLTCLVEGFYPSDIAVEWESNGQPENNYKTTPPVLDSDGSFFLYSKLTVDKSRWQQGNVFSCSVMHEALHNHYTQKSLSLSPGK", "text": "as §1"}, "[8]": {"target": "T8, displayed FcCH3A, A210 (E357A/S364Y/K370E), on yeast cell surface (human, UniProt P0DOX5 227-449 = IgG part)", "T8 construct": "also called A210 CH3A chain (yeast)", "T8 Fc": "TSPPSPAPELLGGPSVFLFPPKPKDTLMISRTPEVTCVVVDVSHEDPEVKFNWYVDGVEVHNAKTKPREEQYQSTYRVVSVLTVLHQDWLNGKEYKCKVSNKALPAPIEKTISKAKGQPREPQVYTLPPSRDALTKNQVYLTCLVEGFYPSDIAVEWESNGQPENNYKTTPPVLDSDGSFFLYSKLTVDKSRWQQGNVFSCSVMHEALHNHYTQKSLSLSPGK", "text": "as §1"}, "[9]": {"target": "T9, displayed FcCH3A, A216 (E357G/S364W/K370E), on yeast cell surface (human, UniProt P0DOX5 227-449 = IgG part)", "T9 construct": "also called A216 CH3A chain (yeast)", "T9 Fc": "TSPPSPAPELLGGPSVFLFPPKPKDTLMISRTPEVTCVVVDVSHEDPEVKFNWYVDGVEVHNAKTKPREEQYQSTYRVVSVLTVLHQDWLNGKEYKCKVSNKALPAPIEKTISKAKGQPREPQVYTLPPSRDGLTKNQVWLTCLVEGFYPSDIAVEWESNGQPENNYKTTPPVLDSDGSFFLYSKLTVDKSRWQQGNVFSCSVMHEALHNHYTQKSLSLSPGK", "text": "as §1"}}}
{"binder": "B1", "values": [{"measurement": "binding result", "setting": "[1]", "result": "binds"}]}
{"binder": "B2", "values": [{"measurement": "binding result", "setting": "[2]", "result": "binds"}]}
{"binder": "B3", "values": [{"measurement": "binding result", "setting": "[3]", "result": "binds"}]}
{"binder": "B4", "values": [{"measurement": "binding result", "setting": "[4]", "result": "binds"}]}
{"binder": "B5", "values": [{"measurement": "binding result", "setting": "[5]", "result": "binds"}]}
{"binder": "B6", "values": [{"measurement": "binding result", "setting": "[6]", "result": "binds"}]}
{"binder": "B7", "values": [{"measurement": "binding result", "setting": "[7]", "result": "binds"}]}
{"binder": "B8", "values": [{"measurement": "binding result", "setting": "[8]", "result": "binds"}]}
{"binder": "B9", "values": [{"measurement": "binding result", "setting": "[9]", "result": "binds"}]}
